Reference: US5470740

Test system: NsiI restriction endonuclease (Neisseria sicca BRL 397)
Experiment: cleavage_in_vitro
Conditions: crude sonicated extract, REact 3 buffer, 37 C, 1 h; each of pUC123 and pUC140

Question: How did the activity (units/g cells) turn out when lambda DNA was run?
Answer: > 26000
